According to patent publication US20060269997A1 (Genentech, published 2006):

Assays:
[1] = target: KDR on human umbilical vein endothelial cells (HUVEC) (human, UniProt P35968 20-1356); experiment: cell-based or functional assay
[2] = target: gD-KDR receptor on CHO cells (UniProt P35968 20-1356); experiment: cell-based or functional assay
[3] = target: T1, KDR (1-3) monomer (UniProt P35968 20-327, limits assumed, biotin-labeled in the ELISA of Example 8); experiment: competition ELISA: inhibits binding of biotinylated native VEGF (8-109) to KDR (1-3) captured by antibody MAKD5 (Example 2)
T1 construct: domain: domains 1 to 3; Genentech reagent; also called domains 1 to 3 of KDR
T1 sequence (P35968 20-327 limits assumed): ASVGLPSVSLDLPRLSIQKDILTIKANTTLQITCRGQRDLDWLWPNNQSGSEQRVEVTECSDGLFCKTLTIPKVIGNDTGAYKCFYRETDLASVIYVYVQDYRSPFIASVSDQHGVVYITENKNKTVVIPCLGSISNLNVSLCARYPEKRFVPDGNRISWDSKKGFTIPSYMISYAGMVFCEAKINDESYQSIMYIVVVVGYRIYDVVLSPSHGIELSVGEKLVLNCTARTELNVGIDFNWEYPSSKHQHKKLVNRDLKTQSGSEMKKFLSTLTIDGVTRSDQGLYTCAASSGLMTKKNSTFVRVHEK
Description: (§1) Receptor binding assays were performed in 96-well immunoplates (Maxisorp, Nunc-Immunoplate, Nalge Nunc International, Rochester, N.Y.). Each well was coated with 100 μl of a solution containing 8 μg/ml of a monoclonal antibody to KDR known as MAKD5 (Genentech, South San Francisco, Calif.) in 50 mM carbonate buffer at pH 9.6 and incubated at 4° C. overnight. The supernatant was discarded, the wells were washed three times in washing buffer (0.05% Tween 20 in PBS), and the plate was blocked (150 μl per well) with block buffer (0.5% BSA, 0.01% thimerosal in PBS) at room temperature for one hour. The supernatant was discarded, and the wells were washed.
(§2) Aliquots of this mixture (100 μl) were added to the precoated microtiter wells and the plate was incubated for 1 hour at room temperature. […] The wells were then incubated with 3,3′, 5,5′-tetramethyl benzidine (0.2 gram/liter; Kirkegaard & Perry Laboratories, Gaithersburg, Md.) for about 10 minutes at room temperature. Absorbance was read at 450 nm on a Vmax plate reader (Molecular Devices, Menlo Park, Calif.).
(§3) Titration curves were fit with a four-parameter nonlinear regression curve-fitting program (KaleidaGraph, Synergy Software, Reading, Pa.).

[4] = target: T2, Flt-IgG (a chimeric Flt-human Fc molecule) (UniProt P17948 27-758, limits assumed); experiment: competition ELISA vs biotinylated native VEGF, Flt-IgG captured by anti-Fc
T2 construct: Only described as a chimeric Flt-human Fc molecule; not shown: human Fc
T2 sequence (P17948 27-758 limits assumed, change not shown): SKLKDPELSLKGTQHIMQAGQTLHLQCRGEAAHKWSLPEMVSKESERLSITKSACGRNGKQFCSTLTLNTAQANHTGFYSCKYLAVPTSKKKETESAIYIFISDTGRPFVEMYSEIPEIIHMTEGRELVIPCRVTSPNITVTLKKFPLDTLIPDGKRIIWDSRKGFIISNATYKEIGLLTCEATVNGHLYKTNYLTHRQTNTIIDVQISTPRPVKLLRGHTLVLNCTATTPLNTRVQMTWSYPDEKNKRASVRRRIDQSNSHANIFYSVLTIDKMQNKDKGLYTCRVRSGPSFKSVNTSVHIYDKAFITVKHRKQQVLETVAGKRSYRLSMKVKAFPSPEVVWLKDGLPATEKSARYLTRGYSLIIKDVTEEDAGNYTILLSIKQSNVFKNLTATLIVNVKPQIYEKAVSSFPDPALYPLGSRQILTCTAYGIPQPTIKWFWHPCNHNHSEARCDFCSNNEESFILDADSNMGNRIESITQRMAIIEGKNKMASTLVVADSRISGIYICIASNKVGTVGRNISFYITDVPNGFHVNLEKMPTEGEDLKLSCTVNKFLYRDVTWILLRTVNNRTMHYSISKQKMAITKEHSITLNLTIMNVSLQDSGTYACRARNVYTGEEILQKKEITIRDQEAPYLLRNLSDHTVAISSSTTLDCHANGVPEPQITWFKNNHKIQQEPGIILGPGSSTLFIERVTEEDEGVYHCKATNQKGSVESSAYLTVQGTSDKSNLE
Description: Receptor binding assays were performed in 96-well immunoplates (Maxisorp, Nunc-Immunoplate, Nalge Nunc International, Rochester, N.Y.). Each well was coated with 100 μl of a solution containing 2 μg/ml of rabbit F(ab′)2 to human IgG Fc (Jackson ImmunoResearch, West Grove, Pa.) in 50 mM carbonate buffer at pH 9.6 and incubated at 4° C. overnight. The supernatant was then discarded, the wells were washed three times in washing buffer (0.05% Tween 20 in PBS), and the plate was blocked (150 μl per well) with block buffer (0.5% BSA, 0.01% thimerosal in PBS) at room temperature for one hour. The supernatant was discarded, and the wells were washed.
The wells were filled with 100 μl of a solution containing Flt-IgG (a chimeric Flt-human Fc molecule) at 50 ng/ml in assay buffer (0.5% BSA, 0.05% Tween 20 in PBS). The wells were incubated at room temperature for 1 hour and then washed three times in wash buffer (0.05% Tween 20 in PBS).
Aliquots of the mixture (100 μl) were added to the precoated microtiter wells and the plate was incubated for 2 hours at room temperature. […] The wells were then incubated with 3,3′, 5,5′-tetramethyl benzidine (0.2 g/liter, Kirkegaard & Perry Laboratories, Gaithersburg, Md.) for about 10 minutes at room temperature. Absorbance was read at 450 nm on a Vmax plate reader (Molecular Devices, Menlo Park, Calif.).

[5] = target: T3, Flt-1 on Flt-1-transfected NIH3T3 cells (UniProt P17948 27-1338, limits assumed); experiment: competitive displacement of 125I-VEGF (legend: 1-165; Example 7: 1-109) from Flt-1-transfected NIH3T3 cells
T3 construct: whole, on cells; also called FLT-1 expressing NIH3T3 cells; Flt-1-transfected cells
T3 sequence (P17948 27-1338 limits assumed): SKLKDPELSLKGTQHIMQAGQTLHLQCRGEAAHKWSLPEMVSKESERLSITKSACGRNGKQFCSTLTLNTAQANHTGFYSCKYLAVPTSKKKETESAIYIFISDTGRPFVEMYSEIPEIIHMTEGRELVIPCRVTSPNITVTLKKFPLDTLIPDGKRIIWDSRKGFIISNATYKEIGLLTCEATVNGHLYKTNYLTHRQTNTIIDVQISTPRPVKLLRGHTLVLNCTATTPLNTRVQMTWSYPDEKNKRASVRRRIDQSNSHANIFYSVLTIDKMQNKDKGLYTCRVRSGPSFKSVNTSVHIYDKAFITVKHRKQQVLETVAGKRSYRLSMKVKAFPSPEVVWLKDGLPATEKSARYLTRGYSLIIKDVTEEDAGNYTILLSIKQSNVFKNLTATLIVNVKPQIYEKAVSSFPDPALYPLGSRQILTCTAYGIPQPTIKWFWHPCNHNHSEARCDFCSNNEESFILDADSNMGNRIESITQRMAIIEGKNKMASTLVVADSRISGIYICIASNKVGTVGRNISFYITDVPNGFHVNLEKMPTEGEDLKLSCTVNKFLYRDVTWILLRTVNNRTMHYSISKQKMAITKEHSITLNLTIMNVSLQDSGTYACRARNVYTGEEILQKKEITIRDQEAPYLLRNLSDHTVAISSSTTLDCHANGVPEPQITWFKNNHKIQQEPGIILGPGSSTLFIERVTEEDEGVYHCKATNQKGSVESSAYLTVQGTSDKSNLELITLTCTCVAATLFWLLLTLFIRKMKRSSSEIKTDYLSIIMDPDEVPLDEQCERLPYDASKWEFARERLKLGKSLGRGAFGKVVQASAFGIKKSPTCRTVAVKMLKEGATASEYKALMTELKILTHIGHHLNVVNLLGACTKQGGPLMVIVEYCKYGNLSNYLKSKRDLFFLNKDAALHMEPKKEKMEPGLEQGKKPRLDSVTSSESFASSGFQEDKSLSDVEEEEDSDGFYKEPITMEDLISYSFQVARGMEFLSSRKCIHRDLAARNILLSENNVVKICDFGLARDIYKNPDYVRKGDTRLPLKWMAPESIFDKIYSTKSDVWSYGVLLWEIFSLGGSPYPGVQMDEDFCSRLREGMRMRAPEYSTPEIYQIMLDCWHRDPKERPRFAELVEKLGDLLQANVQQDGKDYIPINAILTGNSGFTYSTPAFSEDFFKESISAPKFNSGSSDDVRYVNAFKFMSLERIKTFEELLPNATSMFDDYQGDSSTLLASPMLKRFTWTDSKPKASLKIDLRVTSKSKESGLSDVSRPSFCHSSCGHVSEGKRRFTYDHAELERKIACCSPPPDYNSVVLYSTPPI
Description: (§4) KDR or Flt-1 transfected NIH3T3 cells were prepared as described by Fuh et al., J. Biol. Chem., 273:11187-11204 (1998). The transfected cells were maintained in F12 media supplemented with 10% FBS and 400 ug/ml G418 (GibcoBRL). For the binding assays, the cells were plated in 12-wells plates at 1×10⁶/well to reach confluency next day. […] The plates were incubated at 4° C. for three hours and then washed two times with HBS with […].

[6] = target: KDR receptor (soluble RIA of Examples 6 and 8) (UniProt P35968); experiment: soluble radio-immuno receptor-binding assay (RIA)
Sequence of KDR receptor (soluble RIA of Examples 6 and 8) (UniProt P35968) (P35968 20-764 limits assumed): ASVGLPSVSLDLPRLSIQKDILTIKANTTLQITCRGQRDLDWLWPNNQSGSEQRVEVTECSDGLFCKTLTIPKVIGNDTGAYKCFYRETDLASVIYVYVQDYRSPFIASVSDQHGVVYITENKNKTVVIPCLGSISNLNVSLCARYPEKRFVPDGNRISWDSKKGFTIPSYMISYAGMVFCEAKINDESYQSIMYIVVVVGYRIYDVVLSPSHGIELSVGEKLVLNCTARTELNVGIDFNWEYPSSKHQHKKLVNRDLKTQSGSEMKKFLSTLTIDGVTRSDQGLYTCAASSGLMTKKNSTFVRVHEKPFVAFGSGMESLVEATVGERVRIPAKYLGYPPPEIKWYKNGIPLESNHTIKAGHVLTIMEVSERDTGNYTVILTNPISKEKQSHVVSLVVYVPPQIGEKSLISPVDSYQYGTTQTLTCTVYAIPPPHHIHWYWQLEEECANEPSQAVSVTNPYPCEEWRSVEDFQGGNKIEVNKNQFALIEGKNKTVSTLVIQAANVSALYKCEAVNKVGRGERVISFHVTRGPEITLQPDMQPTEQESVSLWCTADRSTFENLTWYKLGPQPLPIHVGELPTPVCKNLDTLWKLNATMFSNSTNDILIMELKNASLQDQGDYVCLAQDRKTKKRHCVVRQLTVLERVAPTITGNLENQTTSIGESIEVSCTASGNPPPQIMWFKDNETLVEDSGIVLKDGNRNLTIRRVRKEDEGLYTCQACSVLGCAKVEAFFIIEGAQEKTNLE

[7] = target: T4, KDR on KDR-transfected NIH3T3 cells (UniProt P35968 20-1356, limits assumed); experiment: competitive displacement of 125I-VEGF (legend: 1-165; Example 7: 1-109) from KDR-transfected NIH3T3 cells
T4 construct: whole, on cells; also called KDR expressing NIH3T3 cells; KDR-transfected 3T3 cells
T4 sequence (P35968 20-1356 limits assumed): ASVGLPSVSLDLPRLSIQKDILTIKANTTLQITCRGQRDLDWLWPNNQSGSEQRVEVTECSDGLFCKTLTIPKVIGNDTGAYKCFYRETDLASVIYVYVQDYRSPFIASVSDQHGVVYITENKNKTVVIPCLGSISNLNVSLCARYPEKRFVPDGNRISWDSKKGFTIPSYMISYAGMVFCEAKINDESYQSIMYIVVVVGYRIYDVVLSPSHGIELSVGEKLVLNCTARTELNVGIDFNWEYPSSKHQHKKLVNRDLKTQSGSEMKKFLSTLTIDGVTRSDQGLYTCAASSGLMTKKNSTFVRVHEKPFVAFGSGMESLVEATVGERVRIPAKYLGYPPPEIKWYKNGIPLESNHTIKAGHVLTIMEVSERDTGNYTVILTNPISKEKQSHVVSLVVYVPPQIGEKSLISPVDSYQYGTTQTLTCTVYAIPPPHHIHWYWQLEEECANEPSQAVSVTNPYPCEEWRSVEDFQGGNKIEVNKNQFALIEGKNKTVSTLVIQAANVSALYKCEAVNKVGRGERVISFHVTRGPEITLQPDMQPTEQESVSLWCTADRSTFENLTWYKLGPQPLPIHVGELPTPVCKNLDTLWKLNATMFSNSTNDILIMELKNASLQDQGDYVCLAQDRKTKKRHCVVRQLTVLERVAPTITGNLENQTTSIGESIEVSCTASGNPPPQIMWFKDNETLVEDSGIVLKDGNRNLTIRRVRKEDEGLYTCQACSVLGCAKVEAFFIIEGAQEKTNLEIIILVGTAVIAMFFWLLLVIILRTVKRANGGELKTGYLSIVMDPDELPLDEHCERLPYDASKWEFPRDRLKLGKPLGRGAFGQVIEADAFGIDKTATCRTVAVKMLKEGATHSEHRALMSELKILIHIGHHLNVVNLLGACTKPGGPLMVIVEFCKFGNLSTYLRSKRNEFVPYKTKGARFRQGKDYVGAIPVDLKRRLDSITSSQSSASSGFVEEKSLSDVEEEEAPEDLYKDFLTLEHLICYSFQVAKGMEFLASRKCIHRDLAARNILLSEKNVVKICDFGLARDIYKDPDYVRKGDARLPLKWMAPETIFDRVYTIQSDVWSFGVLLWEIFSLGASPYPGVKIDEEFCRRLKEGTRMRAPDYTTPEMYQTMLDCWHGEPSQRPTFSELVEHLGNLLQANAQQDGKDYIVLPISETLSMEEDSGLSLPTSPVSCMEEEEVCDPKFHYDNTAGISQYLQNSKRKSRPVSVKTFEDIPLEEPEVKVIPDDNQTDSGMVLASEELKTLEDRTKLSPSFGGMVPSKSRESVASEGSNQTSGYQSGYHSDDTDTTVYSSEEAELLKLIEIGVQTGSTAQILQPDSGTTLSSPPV
Description: as §4

[8] = target: T1, KDR (1-3) monomer; experiment: competition ELISA vs biotinylated VEGF (8-109), soluble KDR (1-3) captured by MAKD5
Description: as §1, §2, §3

[9] = target: KDR receptor (soluble RIA of Examples 6 and 8) (UniProt P35968 20-764, limits assumed); experiment: radio-immuno receptor-binding assay (RIA)
Sequence of KDR receptor (soluble RIA of Examples 6 and 8) (UniProt P35968 20-764, limits assumed) (P35968 20-764 limits assumed): as the sequence (P35968 20-764 limits assumed) above

[10] = target: FLT-1 receptor (soluble RIA of Examples 6 and 8) (UniProt P17948 27-758, limits assumed); experiment: radio-immuno receptor-binding assay (RIA)
Sequence of FLT-1 receptor (soluble RIA of Examples 6 and 8) (P17948 27-758 limits assumed): as the sequence (P17948 27-758 limits assumed, change not shown) above

Sequence of KDR on human umbilical vein endothelial cells (HUVEC) (P35968 20-1356): as the sequence (P35968 20-1356 limits assumed) above

B1: native VEGF (8-109) (ligand, human, UniProt P15692 214-315, looked up)
chain: GQNHHEVVKFMDVYQRSYCHPIETLVDIFQEYPDEIEYIFKPSCVPLMRCGGCCNDEGLECVPTEESNITMQIMRIKPHQGQHIGEMSFLQHNKCECRPKKD
modifications: biotinylated where used as tracer
[1]
  Endothelial Cell Proliferation Activity (HUVEC, 3H-thymidine), concentration: 0.5 nM
[2]
  Phosphorylation-Inducing Activity (KIRA), midpoint concentration: 2 nM
[3]
  IC50 (read off the curve): ~2 nM
[4]
  IC50: 0.42 nM

B2: LK-VRB-2f (ligand, human, UniProt P15692-4 27-191, looked up)
chain: APMAEGGGQNHHEVVKFMDVYQRSYCHPIETLVDIFQEYPDEIEYIFKPSCVPLMRCGGCCNSEMRECVPTEESNITMQIMRIKPHQGQHIGEMSFLQHNKCECRPKKDRARQENPCGPCSERRKHLFVQDPQTCKCSCKNTDSRCKARQLELNERTCRCDKPRR
notes: also called KDR-selective VEGF variant; KDR-sel
[1]
  Endothelial Cell Proliferation Activity (HUVEC, 3H-thymidine), concentration: 0.05 nM
[4]
  IC50: 19 nM

B3: WT VEGF (ligand, human, UniProt P15692-4 27-191, looked up)
VEGF monomer: APMAEGGGQNHHEVVKFMDVYQRSYCHPIETLVDIFQEYPDEIEYIFKPSCVPLMRCGGCCNDEGLECVPTEESNITMQIMRIKPHQGQHIGEMSFLQHNKCECRPKKDRARQENPCGPCSERRKHLFVQDPQTCKCSCKNTDSRCKARQLELNERTCRCDKPRR
[5]
  IC50 (read off the curve): ~0.04 nM

B4: Flt-sel (I43A/I46A/Q79A/I83A, VEGF 1-109 form) (ligand, human, UniProt P15692-4 27-135, looked up)
chain: APMAEGGGQNHHEVVKFMDVYQRSYCHPIETLVDIFQEYPDEAEYAFKPSCVPLMRCGGCCNDEGLECVPTEESNITMAIMRAKPHQGQHIGEMSFLQHNKCECRPKKD
notes: also called Flt-1-sel; Flt-1 selective variant
[6]
  fold reduced KDR-binding affinity (against native VEGF): > 470 fold
[5]
  binding result: binds
[7]
  binding result: no binding (tested: log -6.7 M (about 2e-7 M))

B5: LK-VRB-8s* (ligand)
chain: APMAEGGGQNHHEVVKFMDVLQRSYCHPIETLVDIFQEYPDEIEYIFKPSCVPLMRCGGCCNSEMRECVPTEESNITMQIMRIKPHQGQHIGEMSFLQHNKCECRPKKD
[1]
  Endothelial Cell Proliferation Activity (HUVEC), ratio to native VEGF (8-109): 1 fold
  Endothelial Cell Proliferation Activity (HUVEC, 3H-thymidine), concentration: 0.5 nM
[8]
  IC50: 0.5 nM
  Relative Binding Affinity (ratio to native VEGF (8-109)): 0.5 fold

B6: LK-VRB-1s* (ligand, human, UniProt P15692-4 27-135, looked up)
chain: APMAEGGGQNHHEVVKFEDVLRRSSCHPIETLVDIFQEYPDEIEYIFKPSCVPLMRCGGCCNDEGLECVPTEESNITMQIMRIKPHQGQHIGEMSFLQHNKCECRPKKD
[1]
  Endothelial Cell Proliferation Activity (HUVEC), ratio to native VEGF (8-109): 0.2 fold
  Endothelial Cell Proliferation Activity (HUVEC, 3H-thymidine), concentration: 0.1 nM
[2]
  Phosphorylation-Inducing Activity (KIRA), midpoint concentration: 1 nM
  Phosphorylation-Inducing Activity (KIRA), ratio to native VEGF (8-109): 0.5 fold
[8]
  IC50: 1 nM
  Relative Binding Affinity (ratio to native VEGF (8-109)): 1 fold
[9]
  Relative Binding Affinity (ratio to native VEGF 165): 20 fold
[10]
  Relative Binding Affinity (ratio to native VEGF 165): 14000 fold
[4]
  IC50: 2700 nM
  Relative Binding Affinity (ratio to native VEGF (8-109)): 6000 fold

B7: LK-VRB-2s* (ligand, human, UniProt P15692-4 27-135, looked up)
chain: APMAEGGGQNHHEVVKFMDVYQRSYCHPIETLVDIFQEYPDEIEYIFKPSCVPLMRCGGCCNSEMRECVPTEESNITMQIMRIKPHQGQHIGEMSFLQHNKCECRPKKD
notes: also called KDR selective variant
[1]
  Endothelial Cell Proliferation Activity (HUVEC, 3H-thymidine), concentration: 0.05 nM
[2]
  Phosphorylation-Inducing Activity (KIRA), midpoint concentration: 2 nM
[5]
  IC50 (read off the curve): ~10 nM
[7]
  IC50 (read off the curve): ~0.8 nM
